Data reported in IntAct's records for PubMed 18196517.

B1: Sorting nexin-20 (Homo sapiens), Q7Z614 (parent)
chain: MASPEHPGSPGCMGPITQCTARTQQEAPATGPDLPHPGPDGHLDTHSGLSSNSSMTTRELQQYWQNQKCRWKHVKLLFEIASARIEERKVSKFVVYQIIVIQTGSFDNNKAVLERRYSDFAKLQKALLKTFREEIEDVEFPRKHLTGNFAEEMICERRRALQEYLGLLYAIRCVRRSREFLDFLTRPELREAFGCLRAGQYPRALELLLRVLPLQEKLTAHCPAAAVPALCAVLLCHRDLDRPAEAFAAGERALQRLQAREGHRYYAPLLDAMVRLAYALGKDFVTLQERLEESQLRRPTPRGITLKELTVREYLH
partner: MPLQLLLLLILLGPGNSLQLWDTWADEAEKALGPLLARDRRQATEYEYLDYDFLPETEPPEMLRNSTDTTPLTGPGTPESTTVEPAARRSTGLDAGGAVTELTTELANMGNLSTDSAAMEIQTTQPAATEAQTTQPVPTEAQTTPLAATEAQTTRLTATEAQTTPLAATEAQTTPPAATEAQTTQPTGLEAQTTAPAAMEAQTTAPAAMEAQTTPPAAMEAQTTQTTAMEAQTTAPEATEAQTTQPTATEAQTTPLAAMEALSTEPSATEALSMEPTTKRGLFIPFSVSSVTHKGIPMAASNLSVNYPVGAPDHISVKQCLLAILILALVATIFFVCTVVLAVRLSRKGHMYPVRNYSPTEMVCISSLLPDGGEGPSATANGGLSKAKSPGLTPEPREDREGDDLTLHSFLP

Variants of: B1
Settings: with selpl_human SELPLG

effect of a mutation on the interaction | Variant
disrupting interaction | MASPEHPGSPGCMGPITQCTARTQQEAPATGPDLPHPGPDGHLDTHSGLSSNSSMTTRELQQYWQNQKCRWKHVKLLFEIASARIEERKVSKFVVYQIIVIQTGSFDNNKAVLERQYSDFAKLQKALLKTFREEIEDVEFPRKHLTGNFAEEMICERRRALQEYLGLLYAIRCVRRSREFLDFLTRPELREAFGCLRAGQYPRALELLLRVLPLQEKLTAHCPAAAVPALCAVLLCHRDLDRPAEAFAAGERALQRLQAREGHRYYAPLLDAMVRLAYALGKDFVTLQERLEESQLRRPTPRGITLKELTVREYLH [R116Q]
